From paper PMC4086937, “Two Modes of Regulation of the Fatty Acid Elongase ELOVL6 by the 3-Ketoacyl-CoA Reductase KAR in the Fatty Acid Elongation Cycle” (PLoS ONE, 2014)
Blank lines part the entries; values can stand above or below the molecule they belong to.

Key:
KAR = target: T1, KAR (Homo sapiens, UniProt Q53GQ0); test: coupled elongation with ELOVL6, […]malonyl-CoA, TLC; format: biochemical; settings: 1 mM NADPH; co-reconstituted ELOVL6; 8 µM C16:0-CoA; 27.3 µM [14C]malonyl-CoA; pH 6.8; 37 °C; 90 min
T1 construct: gene HSD17B12; N-terminal 3xFLAG, kept; HEK 293T expressed; anti-FLAG purified, co-reconstituted with ELOVL6 in POPC proteoliposomes; 36 kDa and faint N-glycosylated 39 kDa
T1 sequence (Q53GQ0 1-312): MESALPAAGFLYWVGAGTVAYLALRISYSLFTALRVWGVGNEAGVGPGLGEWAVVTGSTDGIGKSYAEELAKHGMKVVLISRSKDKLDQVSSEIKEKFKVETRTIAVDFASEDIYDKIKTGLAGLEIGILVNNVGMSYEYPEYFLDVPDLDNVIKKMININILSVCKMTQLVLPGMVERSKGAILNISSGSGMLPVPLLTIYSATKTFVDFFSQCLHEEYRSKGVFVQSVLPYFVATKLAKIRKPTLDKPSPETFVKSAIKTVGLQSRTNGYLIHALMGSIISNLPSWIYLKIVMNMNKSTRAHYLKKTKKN
T1 sequence (Q9H5J4 1-265 partner): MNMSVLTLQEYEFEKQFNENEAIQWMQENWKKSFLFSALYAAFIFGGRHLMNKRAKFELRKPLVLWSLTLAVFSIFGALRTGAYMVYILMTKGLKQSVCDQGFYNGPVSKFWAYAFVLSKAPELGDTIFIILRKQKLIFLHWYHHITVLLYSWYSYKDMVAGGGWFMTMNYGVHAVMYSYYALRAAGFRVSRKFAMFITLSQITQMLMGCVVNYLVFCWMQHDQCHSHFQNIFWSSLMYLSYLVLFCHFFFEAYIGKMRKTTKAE

purified protein [1] = substrate: CC(C)(COP(=O)(O)OP(=O)(O)OC[C@H]1O[C@@H](n2cnc3c(N)ncnc32)[C@H](O)[C@@H]1OP(=O)(O)O)[C@@H](O)C(=O)NCCC(=O)NCCSC(=O)CC(=O)O; test: purified protein; format: biochemical, Homo sapiens; settings: 8 µM C16:0-CoA, proteoliposomes, pH 6.8, 37 °C, 90 min, ELOVL6 alone, labelled compound
purified protein [2] = substrate: CCCCCCCCCCCCCCCC(=O)SCCNC(=O)CCNC(=O)[C@H](O)C(C)(C)COP(=O)(O)OP(=O)(O)OC[C@H]1O[C@@H](n2cnc3c(N)ncnc32)[C@H](O)[C@@H]1OP(=O)(O)O; test: purified protein; format: biochemical, Homo sapiens; settings: 27.3 µM [14C]malonyl-CoA, proteoliposomes, pH 6.8, 37 °C, 90 min, ELOVL6 alone
[3] = target: T2, 3xFLAG-ELOVL6 (fatty acid elongase ELOVL6) (human) (UniProt Q9H5J4)
T2 sequence: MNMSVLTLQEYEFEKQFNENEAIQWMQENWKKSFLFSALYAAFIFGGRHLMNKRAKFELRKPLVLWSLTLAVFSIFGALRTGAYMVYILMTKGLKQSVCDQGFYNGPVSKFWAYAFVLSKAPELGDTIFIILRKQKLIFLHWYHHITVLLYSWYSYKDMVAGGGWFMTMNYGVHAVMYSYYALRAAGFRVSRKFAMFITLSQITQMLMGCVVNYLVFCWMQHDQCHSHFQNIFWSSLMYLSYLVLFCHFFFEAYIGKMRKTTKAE

[4] = target: T2, 3xFLAG-ELOVL6 (fatty acid elongase ELOVL6) (human); remark: listed apart in the source

Molecule: NC(=O)C1=CN([C@@H]2O[C@H](COP(=O)(O)OP(=O)(O)OC[C@H]3O[C@@H](n4cnc5c(N)ncnc54)[C@H](OP(=O)(O)O)[C@@H]3O)[C@@H](O)[C@H]2O)C=CC1 [NADPH]
- coupled elongation with ELOVL6, [14C]malonyl-CoA, TLC (KAR): caused production of 3-hydroxyacyl-CoA with a large increase in product levels

B1: ELOVL6 (Homo sapiens) (protein)
chain: MNMSVLTLQEYEFEKQFNENEAIQWMQENWKKSFLFSALYAAFIFGGRHLMNKRAKFELRKPLVLWSLTLAVFSIFGALRTGAYMVYILMTKGLKQSVCDQGFYNGPVSKFWAYAFVLSKAPELGDTIFIILRKQKLIFLHWYHHITVLLYSWYSYKDMVAGGGWFMTMNYGVHAVMYSYYALRAAGFRVSRKFAMFITLSQITQMLMGCVVNYLVFCWMQHDQCHSHFQNIFWSSLMYLSYLVLFCHFFFEAYIGKMRKTTKAE
notes: N-terminal 3xFLAG, kept; HEK 293T expressed; Triton X-100 solubilized, anti-FLAG purified, reconstituted in POPC proteoliposomes; 29 kDa and N-glycosylated 32 kDa
- Km (purified protein [1]): 6.46 µM
- Km (purified protein [2]): 1.22 µM

- in vitro FA elongation assay, purified ELOVL6 and KAR co-reconstituted into proteoliposomes, without NADPH: 3-ketoacyl-CoA levels compared to ELOVL6 alone [3]: 3 fold
- in vitro FA elongation assay, purified ELOVL6 and wild type KAR in the same proteoliposomes, with 1 mM NADPH: product levels compared to ELOVL6 alone [3]: 8 fold
B2: 3xFLAG-KAR (3-ketoacyl-CoA reductase KAR), wild type (enzyme)
chain: MESALPAAGFLYWVGAGTVAYLALRISYSLFTALRVWGVGNEAGVGPGLGEWAVVTGSTDGIGKSYAEELAKHGMKVVLISRSKDKLDQVSSEIKEKFKVETRTIAVDFASEDIYDKIKTGLAGLEIGILVNNVGMSYEYPEYFLDVPDLDNVIKKMININILSVCKMTQLVLPGMVERSKGAILNISSGSGMLPVPLLTIYSATKTFVDFFSQCLHEEYRSKGVFVQSVLPYFVATKLAKIRKPTLDKPSPETFVKSAIKTVGLQSRTNGYLIHALMGSIISNLPSWIYLKIVMNMNKSTRAHYLKKTKKN

- in vitro FA elongation assay, purified ELOVL6 and KAR S189A co-reconstituted into proteoliposomes, with and without 1 mM NADPH: ELOVL6 activity compared to ELOVL6 alone [4]: 3 fold
B3: 3xFLAG-KAR S189A (enzyme)
chain: MESALPAAGFLYWVGAGTVAYLALRISYSLFTALRVWGVGNEAGVGPGLGEWAVVTGSTDGIGKSYAEELAKHGMKVVLISRSKDKLDQVSSEIKEKFKVETRTIAVDFASEDIYDKIKTGLAGLEIGILVNNVGMSYEYPEYFLDVPDLDNVIKKMININILSVCKMTQLVLPGMVERSKGAILNISAGSGMLPVPLLTIYSATKTFVDFFSQCLHEEYRSKGVFVQSVLPYFVATKLAKIRKPTLDKPSPETFVKSAIKTVGLQSRTNGYLIHALMGSIISNLPSWIYLKIVMNMNKSTRAHYLKKTKKN
